Laboratory results as given in PMC4860841, “eIF2 interactions with initiator tRNA and eIF2B are regulated by post-translational modifications and conformational dynamics” (Cell Discovery, 2015).

B1: eukaryotic initiation factor 2 α-subunit (eIF2α) (natural protein, Saccharomyces cerevisiae, UniProt P20459 1-304, looked up)
chain: MSTSHCRFYENKYPEIDDIVMVNVQQIAEMGAYVKLLEYDNIEGMILLSELSRRRIRSIQKLIRVGKNDVAVVLRVDKEKGYIDLSKRRVSSEDIIKCEEKYQKSKTVHSILRYCAEKFQIPLEELYKTIAWPLSRKFGHAYEAFKLSIIDETVWEGIEPPSKDVLDELKNYISKRLTPQAVKIRADVEVSCFSYEGIDAIKDALKSAEDMSTEQMQVKVKLVAAPLYVLTTQALDKQKGIEQLESAIEKITEVITKYGGVCNITMPPKAVTATEDAELQALLESKELDNRSDSEDDEDESDDE
modifications: found in the purified protein (Table 1): N-term-ac-S2, pS194, pS292, pS294, pS301
notes: eIF2 α-subunit, encoded by SUI2 in yeast Saccharomyces cerevisiae; Expressed from plasmid pAV1089 [SUI2 SUI3 6xHisGCD22 URA3]; N-terminal acetylation on S2 implies that the first methionine is removed; also called SUI2; source: S. cerevisiae strain GP3511 overexpressing the three eIF2 subunits
B2: eukaryotic initiation factor 2 β-subunit (eIF2β) (natural protein, Saccharomyces cerevisiae, UniProt P09064 1-285, looked up)
chain: MSSDLAAELGFDPALKKKKKTKKVIPDDFDAAVNGKENGSGDDLFAGLKKKKKKSKSVSADAEAEKEPTDDIAEALGELSLKKKKKKTKDSSVDAFEKELAKAGLDNVDAESKEGTPSANSSIQQEVGLPYSELLSRFFNILRTNNPELAGDRSGPKFRIPPPVCLRDGKKTIFSNIQDIAEKLHRSPEHLIQYLFAELGTSGSVDGQKRLVIKGKFQSKQMENVLRRYILEYVTCKTCKSINTELKREQSNRLFFMVCKSCGSTRSVSSIKTGFQATVGKRRRM
modifications: found in the purified protein (Table 1): N-term-ac-S2, pS40, acK89, pS91, pS92, pS112
notes: eIF2 β-subunit, encoded by SUI3 in yeast Saccharomyces cerevisiae; Expressed from plasmid pAV1089 [SUI2 SUI3 6xHisGCD22 URA3]; N-terminal acetylation on S2 implies that the first methionine is removed; also called SUI3; source: S. cerevisiae strain GP3511 overexpressing the three eIF2 subunits

Tests used:
[1] = biological target: T1, eukaryotic initiation factor 2 γ-subunit (eIF2γ), His-tagged (Saccharomyces cerevisiae, UniProt P32481 1-527, found in the purified protein (Table 1): pT60, acK129, pT137, pS258, pS265, pS312, acK401, acK519); experiment: native MS; intact His-tagged eIF2 purified from yeast, buffer exchanged against 500 mM ammonium acetate; QSTAR XL modified for high-mass complexes; tandem MS of the 24+ charge state of intact eIF2; conditions: both partners purified
T1 construct: eIF2 γ-subunit, encoded by GCD11 in yeast Saccharomyces cerevisiae (the methods print the plasmid's gene as '6xHisGCD22'); also called GCD11; source: S. cerevisiae strain GP3511 overexpressing the three eIF2 subunits

[2] = biological target: B1; experiment: cross-linking; purified apo eIF2 with a 1:1 mixture of 2.5 mM BS3-d0/d4, 1 h, room temperature; gel, trypsin, LC-MS/MS; also compared with the ternary complex (Met-tRNAi^Met, GDPNP) by BS3-d0 against BS3-d4; conditions: both partners purified

T1 sequence (P32481 whole entry): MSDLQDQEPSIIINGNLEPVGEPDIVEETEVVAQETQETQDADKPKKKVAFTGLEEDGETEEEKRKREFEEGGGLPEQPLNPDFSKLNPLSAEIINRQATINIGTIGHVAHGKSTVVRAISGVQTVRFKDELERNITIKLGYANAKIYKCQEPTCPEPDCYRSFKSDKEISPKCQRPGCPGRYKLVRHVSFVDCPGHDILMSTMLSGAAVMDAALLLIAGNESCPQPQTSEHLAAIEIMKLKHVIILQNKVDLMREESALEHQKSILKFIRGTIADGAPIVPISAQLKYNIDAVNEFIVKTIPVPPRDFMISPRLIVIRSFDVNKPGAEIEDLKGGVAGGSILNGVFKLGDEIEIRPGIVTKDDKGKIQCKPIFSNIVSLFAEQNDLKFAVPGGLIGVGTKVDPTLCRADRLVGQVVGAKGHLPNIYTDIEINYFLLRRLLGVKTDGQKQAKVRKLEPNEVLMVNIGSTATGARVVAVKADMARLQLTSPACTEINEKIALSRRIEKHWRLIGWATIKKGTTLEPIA

| Binder | stoichiometry N [1] | binding result [2] |
| --- | --- | --- |
| B1 | 1 |  |
| B2 | 1 | binds |
